The record followed here is the domain aggregation screens of Martell et al. (2025).

A short description of the data set: soluble fraction after stress (log2 fold change); higher = more stays soluble; pooled small domains, quantitative proteomics. Conditions: stress: 50 degC. The essentials:
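Custom libraries of small protein domains were pooled and measured in a high-throughput format, with quantitative proteomics as the read-out. Each library was stressed at 50°C. The value is the log2 fold change in the amount of each protein that stays soluble after stress, used as a measure of aggregation propensity; higher values mean more of the protein stays soluble.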

“HMTDIDATSIERAVAKRRHFFLSNIQDLTMKMARRLIEKDLGLAPKHLDAAPFKTRITELVDAVIALGD”: the “soluble fraction (log2)” value was -0.165.

Take “HMGASFITSSKDNAINIRESATTDSKVIETIKNGEILESTEKSGDWHKVTYYNSEIKKSFTGYIHNSQLK”: the “soluble fraction (log2)” value came to 0.168.

For the sequence “HMLPVYSITEAAERLDIPASTIKWYADRFASYISPSKGKGRKRFTPEDLATLQKIHELSQDHTTEEAEAML”, the “soluble fraction (log2)” value is -0.281.

As for “HMGTIEQAFKGKAPGSAHLYDRARAVLAGGVTHDTRIHAPFPIMVQRALGARKWDVDGNEYIDY”, the “soluble fraction (log2)” value worked out at 0.0863.

“HMPAVTEQTKTNLRRAFWQLYEQKPIQKITVKQITDLAGYNRGTFYLYFKDVYDLLDDIENK”: the “soluble fraction (log2)” value was -0.704.

For the sequence “HMKWIEILKSKDGNYALLQDEKDTQFVVASGYNPDAAEDQKWGHGSYFIYWNNKENKAEMLMNAIDLFRYR”, the “soluble fraction (log2)” value is -2.11.

As for “HMRNANENTLKDLPVAVPNIHVSNIEEKKDFHLIQLEYSQEFDPREDLFNFAVNSSWVILKMTPT”, the “soluble fraction (log2)” value worked out at 0.422.

Consider “HMKNLTERQQQIIALISGNPLITRAEIASAIGFSVKTIERELSILSEIVSYVGSKKGGHWEIQT”, for which the “soluble fraction (log2)” value is -1.15.

With “HMNKMIDAPDLTGLSLEDAKLVLEANKLQLGTVSHEPSDKPEDVVISQDPMEGQEIQQGGKVNLVVSYGD”, the “soluble fraction (log2)” value is -0.0696.

“HMSVPQENKDLLGRSIEIFYAGKTVEAKVTDTGALAPLGRALDLSPATWRAFGASSISDWGVRGVFYRFVA”: the “soluble fraction (log2)” value is 0.0464.

For the sequence “HMKNMSLGERIKEQRKSSGLSQEKVAEFVGVSRQAVTKWETGQSAPSTENLFKLAEIFGTTVDILLA”, the “soluble fraction (log2)” value worked out at 0.000199.

As to “HMQHQSGLKSGEFEAISQQLQALLKENPLSLQEIKDKMQVTENHLIKVVSYLVSEEIIRQENGYLK”, the “soluble fraction (log2)” value was -0.729.

Take “HMSGDYRPLYPNLPESEKSEAFNLLAGSALPARLDDRTGDIMVPADRYYEARMILANAGFAD”: the “soluble fraction (log2)” value amounted to 0.0141.

On to “HMVDYIGRRGVMLSTVSEEKMGNAEVVIDGNSYNIYVKSLDGSTIAYHQEILIINKSKDNNYFLVQIY”, for which the “soluble fraction (log2)” value is -2.63.

With “HMQLNNTDELEKIILKILENNPKQVDQFLAGKQKLLGFFVGQAMRATSGKANPKTVNDLLEKFLSK”, the “soluble fraction (log2)” value was -0.0714.

For “HMSEEELETSGLVKRSAKGNLYDIFRHRVMVPIIDVRGAIIAFGGRVLDDSKPKYINSPETMVY”, the “soluble fraction (log2)” value came to 0.0208.

Take “HMGTDIGADKAAQTALADAGLSSSQVTGLRTKQDWDDGQLRYEVEFRAGGVEYDYELAADGTILKADRDT”: the “soluble fraction (log2)” value is 0.247.

For “HMDSINIDEETAKLGPNAPQIIDGIKKWGQGLVAKGVWSDEDFDEFKVFAATSSGINALNKIRKYY”, the “soluble fraction (log2)” value was 0.0428.

For “HMTKQRSIILDLLKANQDRHLTAEEMLELLNQNHTPVSKATLYRYLDMLVSQNAVRKFIIDDQPSAGYQYL”, the “soluble fraction (log2)” value is -1.34.

Turning to “HMILVLKPGAPEDLKNELIHDIEKMGLRVHVSVGEGTTIIGLIGDTSKISKYTFSSYEIVSNVLRVT”, the “soluble fraction (log2)” value was -0.0106.

In the case of “HMSKLSLREIVKKFEEQIIQLHKRGLNHSEISREIVTKNSIDLGDSHIDSLRRAISVHLQTP”, the “soluble fraction (log2)” value is -0.0999.

As to “HMRGLIEPLSQRELEVLMLMARGQSNAHIADQLNISENTIKWHGRNIFGKLGVSNRTEAVITSQEMGMLAT”, the “soluble fraction (log2)” value was -0.621.

Consider “HMALPEHIEPFLRGLGQALAEGDSYEDVQERLLRAYPYLDSTEFQTALARVIFISDLWGRLN”, for which the “soluble fraction (log2)” value was -1.55.

Turning to “HMQGQVLQETARKARSQLDSEIPGFNDALYQNLIKSSENYGYKAEEVAQWVDPRAIKVLNDAYQFQQLKAG”, the “soluble fraction (log2)” value is -0.0765.

In the case of “HMERPPHELLSDREYQTMVMIASGRTLTQIAEEMSLSPKTVSVYRARLLEKMKLKNNAELTHYALKHKLV”, the “soluble fraction (log2)” value was 0.0152.

In the case of “HMENYTYKYATSANVNIREEPNTDSTILGKTLLNTEFQVVEDVDGWSKITTEAGYAYIKSEYLSDTE”, the “soluble fraction (log2)” value is -0.188.

For the sequence “HMHVYQSLVTDRVVPGGGYRTTEAILSTEAWRNTLLEQAKRELIGVRNKYASLTELAKVWTAIDTVT”, the “soluble fraction (log2)” value was -0.586.

For the sequence “HMKKEETEAEELEEKFTSAQIKQAYGILNDPRYKQGNYSGAVNVINKIAPGLADHPDVKNALKRANEEL”, the “soluble fraction (log2)” value came out at 0.0375.

Turning to “HMVFADRLRALRKKSGLTQDEFSKQTGIGRSAVGMYESGKREPNYTTLSKVARFYHVSTDYLLGRTDTP”, the “soluble fraction (log2)” value is -1.04.

For “HMVMSTDAELILEYLAKHQGEMEITDKSSPELIMDTFNMSKGAFKRALGSLYKSKTVVIESTKVLLNT”, the “soluble fraction (log2)” value was -1.44.

As to “HMQKKYLAVKEYLLEQINSGAYQPDEPIPPEREMAAMLGVNRMTLRRAVEELMYEGLLIRKKGSGTFLTK”, the “soluble fraction (log2)” value is -1.52.

“HMDKKIVGVNAGKVWQALNEVTEISIVELAEKLNLSVESTALAAGWLAREDQISIERKNGTIELQRKN”: the “soluble fraction (log2)” value is -0.263.

Consider “HMVMETLAERINTALQTKGLSVNALARRVGVSYPAMRKITKGETLNPKFLFEIAEALGVSVEWLKTGEGSP”, for which the “soluble fraction (log2)” value is -0.372.

For “HMKLNEQSMQVIDRIVDRHRGRPGPVKLMLHDVQKELGYIPFEAMEKIAAASGVSADEVYGVVTFYTQFTT”, the “soluble fraction (log2)” value was -0.0825.

With “HMDEVPMPPEYQYLRVGSRVHHATFGWGKVTRLSQPWPQTRAEVFFENIGPKKLVLAHAHLTMD”, the “soluble fraction (log2)” value was -0.727.

For “HMTARYQQVEDYIVRRIQDGSWPPGHRLPSEHELVQQFGMSRMTVNRALRDLMQKGRIVRVAGVGSFVAQD”, the “soluble fraction (log2)” value is -1.41.

As for “HMTVTISPGYEGRLLRSYLKNTLSLSTSALARLKTREDGITVNGVRVTVRYVLHAGDLLQLAVD”, the “soluble fraction (log2)” value was -0.597.

With “HMPSPFYIMDEVEAALDDTNLGRLITLFEELRDSSQLIVITHQKKTMEIADALYGVTMRGDGITTVVSQRL”, the “soluble fraction (log2)” value is -0.343.

With “HMGRMSLDEAKAVILPIGEHKGHTMGEVLAIKPGLIDFYASQKFNSGKYPYLKEAAQVILENQG”, the “soluble fraction (log2)” value was -0.109.

As to “HMLPKILVMDGKVNKNALTTLGKDEEWVKKVLRNHNIHSIKDVLLALYDTKGKFQYQLYDDYEK”, the “soluble fraction (log2)” value was -0.0783.

For “HMNYLDVNIPVTSAVWMGKQLPEMGTLIYLTPDKDVEGMLFIKQATKDKPDGEYIEAKVLGYKEGRVLFDF”, the “soluble fraction (log2)” value was -0.547.

For the sequence “HMELTVPDFTNMSLEDAINLAEKRDVRLEVTDSVFVKRLGRGFIYSQNPVAGSKVKKGRRILITINAIN”, the “soluble fraction (log2)” value was -2.53.

For “HMQTFGTMIAALRKEQGMTQLELAEKMGVTDKAVSKWERDLSFPDVNSLPKLAEIFHVSVDEL”, the “soluble fraction (log2)” value is -0.229.

Turning to “HMYPNEFPRKVMSVFESSGLEMFRTIEMLLAIPEYETPLPYGSGVSRSDIFVLAKSAGNLVSITV”, the “soluble fraction (log2)” value is 0.00886.

On to “HMVITATYTDFMDALEADEVKQVQFSSTEINYTIEKGGHVQYFKTGVVDNPQLPQILREKGVTYAAEIP”, for which the “soluble fraction (log2)” value is -0.0375.

“HMELPPLQPGQPIDGRVEQQIRAGYYVVSVRGRGYEFQLPESARPGDLLRMVYLNDHPRLTFALLRIDNAN”: the “soluble fraction (log2)” value is -0.98.

With “HMPMIQHFHRMISAALGISEKQIVQTLGLLNDGATIPFISRYRKEVTGGLDEVQIESIKTHYEKLNEIAK”, the “soluble fraction (log2)” value was -1.52.

Regarding “HMTYADTRDLLIRRGMELLTEQGIAATSIERVLQSTGIPKGSFYHYFATKHDFTLAVMDAYHHY”, the “soluble fraction (log2)” value was -0.0315.

Turning to “HMDPSKMKIDELEIATRTATALADGGIKSVAGLIRKSASALKELDGVGDKAIAEITEALEKLGLELKG”, the “soluble fraction (log2)” value was 0.0501.

Take “HMPANLTPDYFKAEQWYRSASTNEEKMLALEQMLAVMPKHKGTEHLQADLKRKLSQLKDASAQ”: the “soluble fraction (log2)” value worked out at 0.148.

Turning to “HMLTDAAAVKRSVRNLVQYGFYEKPFHPEIGSGVRDLLFENMTPFVANNLSKQIEEIITNYEPRA”, the “soluble fraction (log2)” value is -0.396.

As to “HMTTTAGTAVVQTGNSGKLNLREQAYSNAGILGRYSNGTIVTVLQKGSAWSYVEVQGQKGYMMSKFLRFT”, the “soluble fraction (log2)” value was 0.293.

As to “HMHYALTVDFPAALEARIDPAHRAALRGVLAHDPRPSYQSDPERLYGVAFAGKNVKFTVEDGVLTVRKIEE”, the “soluble fraction (log2)” value is 0.0218.

In the case of “HMQGAARGMLFAQAQRWMTKFRIDPQQADRITQAALDPAQTDAILREVRRGYGPSAERALRGIIRRARRA”, the “soluble fraction (log2)” value is -0.968.

For the sequence “HMEFTVFMNSAGGSKLQVVKTVKELTGLGLKEAKAIVDGSPGPVKEGLSKADAEAMLAKLQEAGADVEL”, the “soluble fraction (log2)” value is -0.0948.

Turning to “HMWPDDAIALPTRDGQDVGGAQERTMLAFASGAAGIRTVEEINPDGSITRLRTRYGWPTFETEGARTAAAE”, the “soluble fraction (log2)” value is -0.109.

Turning to “HMDKPGMRLNQFIAHSGISSRREADNLIKAGLVQVNGKIIVEMGFRVMPTDIVKFNNETIAS”, the “soluble fraction (log2)” value was -1.46.

Take “HMHRTRNAERTRAAVLKAAAEVLAERGTGASLARIAEVAGVSKSGLLHHFANREQLIVALLED”: the “soluble fraction (log2)” value was -0.984.

Regarding “HMIDNFFTIRFNYSKINEVIRLLKEFNGEIFNKNYDKNEYIIEFSIPKKDAALLISKLKNITGLTIEQ”, the “soluble fraction (log2)” value is -0.00473.

Consider “HMETITDRLNRRSLELNVSQADIIRTTGAGRGTVSGWFSGANAPSAKYLESLAVALKTSTTWLLSGKD”, for which the “soluble fraction (log2)” value is -0.741.

For “HMSAPLKELGNDPESGKPIVVKDGRFGAYVTDGETNATLRKTDAVESLTPERAAELLAEKRAKG”, the “soluble fraction (log2)” value stood at 0.168.

For the sequence “HMNTISYTELIKQIDEGNVEKVEMTVGSTSVKVKLQGQEEEKKAIVPNTQAFVELIQEKTLEGNQIDLKQN”, the “soluble fraction (log2)” value was -0.0333.

Turning to “HMEIEYFDDEELDAYKGRKSDSYTDEEAAQFAEVLYTMRPSEVKDWTASLTLRGISMPDQIKDEAIMLME”, the “soluble fraction (log2)” value was -0.0466.

As for “HMNSSTVDLAKEFLIDLLSSVEKMPASEVQEEAKNAGYSVASIRRAKDNLNIKPFKDGSAWYWKLPSIFK”, the “soluble fraction (log2)” value was -0.114.

As for “HMRDYKTHLQEVLQSKGEVNIWYKLIDEKGPDHNKKFVMQVGIDSKILGFGEGKSKKEAEQVAARKALDNI”, the “soluble fraction (log2)” value is -0.118.

As for “HMGAYITYEVKPGDTLWDIANKFPGVSADNIKTWNKVDELIKAGERLKINTQTITDYSPDKYPS”, the “soluble fraction (log2)” value was -0.221.

Consider “HMKSARDDILSALDKAGEPLSMKDIAELSGRKLSTLRAQMTRLVAEGAVQATAAAHSPDRKYRK”, for which the “soluble fraction (log2)” value was -0.0859.

Turning to “HMLHSEDATVVRQAIPLLERHVDAATVAVARRNLAQLEQFGRYPRRNQALGRISNPAENAYLRAER”, the “soluble fraction (log2)” value was 0.0897.

Turning to “HMDESLIEEAKAMILQMKIEGSVRVRSNGLLEFRNPLFGSVYGRSVEELQEKLNKKVREQKSRI”, the “soluble fraction (log2)” value is -0.0459.
